# Results published in PMC11133340.
# Molecular target: PSII-ACPII monomer (one PSII core monomer with six ACPII subunits and CCPII-S) (Chroomonas placoidea (endogenous in C. placoidea T11))
# Test: cryo-EM structure; single-particle cryo-EM of the native PSII-ACPII supercomplex co-purified from C. placoidea thylakoids; 25 mM Hepes-KOH pH 7.5, 1 mM CaCl2, 0.012% α-DDM; C2 symmetry, 2.47 Å overall; local refinement of the peripheral ACPIIs to 2.84 Å
substance,measurement,value
PSII-ACPII monomer (one PSII core monomer with six ACPII subunits and CCPII-S) (from UniProt A0A222AI37 1-351; A0A222AIE3 1-509; A0A222AI36 1-461; A0A222AI74 1-84; A0A222AI51 1-42; A0A222AIE4 1-67; A0A222AI80 1-38; A0A222AI54 1-39; A0A222AIA0 1-45; A0A222AI58 1-38; A0A222AID2 1-32; A0A222AI61 1-39; A0A222AI96 1-62; A0A222AI35 1-163) (complex),stoichiometry N,2
